Measurements from patent publication EP4755919A1, “ANTI-TROP2 ANTIBODY, CONJUGATE COMPRISING SAID ANTIBODY, AND USE THEREOF” (Hanano Technologies Limited, priority 2023, dated 2024).
Numbering of substitutions follows the chain as printed.

Columns and labels:
serum albumin = serum albumin (UniProt P02768); assay: relative binding activity against HuNb3-11; method not described
Trop2 [1] = biological target: T1, Trop2 (UniProt P09758 27-323, limits assumed); assay: flow cytometry on A431 cells, APC anti-HA detection
T1 construct: whole, on cells; also called TACSTD2; Trop2 on A431 cells
T1 sequence (looked up): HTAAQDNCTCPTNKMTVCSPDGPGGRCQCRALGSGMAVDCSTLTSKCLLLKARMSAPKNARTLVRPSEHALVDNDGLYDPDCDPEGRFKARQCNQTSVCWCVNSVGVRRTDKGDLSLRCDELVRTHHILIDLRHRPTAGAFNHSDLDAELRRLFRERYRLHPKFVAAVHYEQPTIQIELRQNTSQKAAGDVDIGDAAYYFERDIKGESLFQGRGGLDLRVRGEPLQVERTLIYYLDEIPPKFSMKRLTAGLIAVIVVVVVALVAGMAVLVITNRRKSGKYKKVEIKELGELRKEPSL

Trop2 [2] = biological target: T1, Trop2; assay: flow cytometry on BxPC3 cells, APC anti-HA detection
Trop2 [3] = biological target: T1, Trop2; assay: flow cytometry on A431 and BxPC3 cells, human albumin added during incubation, goat anti-VHH and Alexa Fluor488 donkey anti-goat detection
A431 cells [4] = assay: Binding activity of long-acting Trop2 antibody conjugated drug to A431 cells by flow cytometry
Method: (§1) Flow cytometry was used to detect the binding activity of these candidate single domain antibodies to Trop2 high expression cell line A431. After the cultured A431 cells were digested with trypsin and neutralized in complete medium, the cells were washed once with PBS, collected and counted, and the cells were added to a 96-well V-bottom plate, 2E5 cells/well. Diluted candidate single domain antibodies and control antibodies BMK1, BMK2 and BMK3 (control antibody sequences are all referred to patent CN111518212B, where BMK1 sequence is the amino acid sequence as set forth in SEQ ID NO: 78, BMK2 sequence is the amino acid sequence as set forth in SEQ ID NO: 65, and BMK3 sequence is the amino acid sequence as set forth in SEQ ID NO: 68) were added to the plate respectively and incubated at 4°C for 40min. After centrifugation, cells were washed with PBS twice, and APC anti-HA antibody was added to incubate at 4°C for 40min. […] APC signal of each sample was detected by flow cytometry.
(§2) The long-acting Trop2 antibody conjugated drug HuNb1-Alb Nb1-MMAE was incubated with A431 and BxPC3 cells, and the binding activity of the antibody conjugated drug to the cells was detected by flow cytometry. […] After centrifugation, the cells were washed and the supernatant was removed, and the cells were resuspended in PBS and then the Alexa Fluor488 signal of each sample was detected by flow cytometry.

BxPC3 cells [5] = assay: Binding activity of long-acting Trop2 antibody conjugated drug to BxPC3 cells by flow cytometry
Method: as §1, §2

[6] = tested on: BxPC3 pancreatic cancer cells; assay: Anti-tumor activity in BxPC3 tumor-bearing mice; type: in vivo; conditions: NCG mice
Method: NCG mice were inoculated with BxPC3 pancreatic cancer cells for tumorigenesis. When the tumors grew to about 80mm^3, they were divided into groups, with 6 mice in each group. Three dose groups were set up to be intraperitoneally injected with HuNb1-Alb Nb1-MMAE at 0.2mg/kg, 1mg/kg and 5mg/kg, three times a week, respectively. The negative control group was intraperitoneally injected with PBS. The positive control group was intraperitoneally injected with 150mg/kg Gemcitabine, three times a week.

A431 cells [7] = assay: Cell killing activity on A431 cells by Cell Counting Kit-8 (CCK8); type: cell-based; conditions: pre-incubated with human serum albumin, 96 hours culture, CCK8 OD450 (FIG.7)
Method: (§3) The long-acting Trop2 single domain antibody conjugated drug HuNb1-Alb […]-MMAE was gradiently diluted in cell medium and incubated with human serum albumin for 20 minutes, then co-incubated with A431 cells and BxPC3 cells, respectively. Cell Counting Kit-8 was added after 96 hours of culture at 37°C in 5% CO2 incubator, and the cells were incubated in the incubator for 2.5 hours. After reading the data (OD450) in the microplate reader, IC50 was calculated.

BxPC3 cells [8] = assay: Cell killing activity on BxPC3 cells by Cell Counting Kit-8 (CCK8); type: cell-based; conditions: pre-incubated with human serum albumin, 96 hours culture, CCK8 OD450 (FIG.8)
Method: as §3

serum albumin, sequence (P02768 25-609 limits assumed): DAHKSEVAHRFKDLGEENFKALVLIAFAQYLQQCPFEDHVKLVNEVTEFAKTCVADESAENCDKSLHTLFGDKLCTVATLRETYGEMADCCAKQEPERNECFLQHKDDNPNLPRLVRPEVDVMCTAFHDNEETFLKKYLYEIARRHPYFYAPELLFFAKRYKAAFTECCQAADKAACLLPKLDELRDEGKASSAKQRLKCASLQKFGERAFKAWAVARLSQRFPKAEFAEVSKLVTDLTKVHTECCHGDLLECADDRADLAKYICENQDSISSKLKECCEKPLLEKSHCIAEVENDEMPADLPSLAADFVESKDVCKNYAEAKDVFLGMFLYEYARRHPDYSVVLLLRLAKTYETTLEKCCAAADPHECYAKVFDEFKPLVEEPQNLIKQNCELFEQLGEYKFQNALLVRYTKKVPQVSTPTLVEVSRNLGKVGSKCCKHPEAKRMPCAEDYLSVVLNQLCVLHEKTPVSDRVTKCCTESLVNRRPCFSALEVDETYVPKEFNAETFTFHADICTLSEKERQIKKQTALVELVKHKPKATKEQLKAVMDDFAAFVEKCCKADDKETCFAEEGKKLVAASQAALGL

B1: anti-serum albumin single domain antibody Alb Nb1 (VHH)
VHH: EVQLQESGGGLVEPGGSLRLSCVASGFTFQHYAMSWVRQAPGKGLEWVSSISLVGGGTSYADSVKGRFTMSRDNAKNTLYLQLNSLKSEDTAMYYCVRGWHPDVPRPLGQGTLVTVSS
Relative binding activity EC50 (serum albumin): 92%

B2: anti-serum albumin single domain antibody Alb Nb3 (VHH)
VHH: B1 VHH with L53I
Relative binding activity EC50 (serum albumin): 80%

B3: anti-serum albumin single domain antibody Alb Nb2 (VHH)
VHH: B1 VHH with L53V
Relative binding activity EC50 (serum albumin): 95%

B4: anti-serum albumin single domain antibody Alb Nb4 (VHH)
VHH: B1 VHH with L53T
Relative binding activity EC50 (serum albumin): 71%

B5: humanized Trop2 single domain antibody HuNb2 (VHH)
VHH: EVQLLESGGGLVQPGGSLRLSCVDSGSTYSRRYMGWFRRAPGKGLEGVSVISPYGDSTYYADSVKDRFTISRDNAKNTVYLQMNSLKPEDTAMYYCAASWPYQTASLDAMDFTDWGQGTLVTVSS
notes: also called Trop2 HuNb2; not shown: HA tag used for APC anti-HA detection
binding result (Trop2 [1]): binds

B6: Trop2 single domain antibody Nb1 (VHH)
VHH: QVQLQESGGGSVQAGGSLRLSCAASGFTFSRACMGWFRQASGKEREGVAQVYTGGGSTSYADSVKGRFTISQDNAKNTLYLQMNSLKPEDTAVYYCAVGQPYGACYYSDLAPADFSYWGQGTQVTVSS
notes: Camel-derived VHH expressed and purified from E. coli (phage vector pMECS); detected through an HA tag; also called Trop2 Nb1; candidate antibody Nb1; not shown: HA tag (and any other vector-derived tag from pMECS) used for APC anti-HA detection
binding result (Trop2 [1]): binds

B7: humanized Trop2 single domain antibody HuNb1 (VHH)
VHH: B6 VHH with Q1E, Q5L, S11L, A14P, E44G, R45L, Q123L
notes: Humanized form of Nb1; also called Trop2 HuNb1; not shown: HA tag used for APC anti-HA detection
binding result (Trop2 [2]): binds

B8: long-acting Trop2 antibody conjugated drug HuNb1-Alb Nb1-MMAE (bispecific antibody)
chain: EVQLLESGGGLVQPGGSLRLSCAASGFTFSRACMGWFRQASGKGLEGVAQVYTGGGSTSYADSVKGRFTISQDNAKNTLYLQMNSLKPEDTAVYYCAVGQPYGACYYSDLAPADFSYWGQGTLVTVSSGGGGSGGGGSGGGGSGGGGSEVQLQESGGGLVEPGGSLRLSCVASGFTFQHYAMSWVRQAPGKGLEWVSSISLVGGGTSYADSVKGRFTMSRDNAKNTLYLQLNSLKSEDTAMYYCVRGWHPDVPRPLGQGTLVTVSSGGC
modifications: vc-PAB-MMAE (Monomethylauristatin E) coupled to the free cysteine (C) at the C-terminus
notes: also called HuNb1-Alb Nb1-GGC conjugated with vc-PAB-MMAE
binding result (Trop2 [3]): binds

B9: HuNb1-Alb Nb1-MMAE: long-acting Trop2 antibody conjugated drug: HuNb1-Alb Nb1-GGC coupled with vc-PAB-MMAE (Monomethylauristatin E) (conjugate)
chain: B8 chain
binding activity to A431 cells (A431 cells [4]; flow cytometry, Alexa Fluor488 signal (FIG.5)): good binding activity | effect of the presence of HSA protein on binding to A431 cells (A431 cells [4]; human blood albumin added during incubation (FIG.5)): not affected by the presence of HSA protein | binding activity to BxPC3 cells (BxPC3 cells [5]; flow cytometry, Alexa Fluor488 signal (FIG.6)): good binding activity | effect of the presence of HSA protein on binding to BxPC3 cells (BxPC3 cells [5]; human blood albumin added during incubation (FIG.6)): not affected by the presence of HSA protein | tumor of high-dose group ([6]; high-dose group (5mg/kg intraperitoneal, three times a week), after treatment for 20 days): completely fades | treatment effect compared with Gemcitabine ([6]; high-dose group versus 150mg/kg Gemcitabine intraperitoneal, three times a week): significantly better than the treatment effect of Gemcitabine | BXPC3 tumor killing activity ([6]; intraperitoneal 0.2mg/kg, 1mg/kg and 5mg/kg, three times a week (FIG.9)): significant BXPC3 tumor killing activity | killing effect on A431 cells (A431 cells [7]): significant killing effect | killing effect on BxPC3 cells (BxPC3 cells [8]): significant killing effect
